Measured values as given in patent WO2018102654A1 (dated 2018).
One block for each binder: values may come before it.

Molecular target: gastric inhibitory polypeptide (GIP), species not stated
Assay: modified Schild's assay plot, reporter cell line expressing GIP receptors

gastric inhibitory polypeptide (GIP), species not stated, sequence (P09681 52-93): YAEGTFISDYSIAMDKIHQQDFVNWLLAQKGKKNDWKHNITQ

- Kd: 2200 nM
B1: LC2/HC2 humanized antibody (antibody, V domains shown)
VH: QVQLVQSGAEVKKPGATVKISCKASGFNIRDYYLHWVQQAPGKGLEWMGWIDPENGDTEYAPKFQGRVTITADTSTNTAYMELSSLRSEDTAVYYCNVYGIYFMDYWGQGTMVTVSS
VL: DIQLTQSPSSVSASVGDRVTITCRASSSISSNSLHWYQQKPGKAPKLLIYRTSNLQSGVPSRFSGSGSGTDYTLTISSLQPEDFATYYCQQGSSFPRMLTFGQGTKLEIKR
notes: CHO supernate in the ELISA; Protein A purified in the neutralization assay; also called mAbH; GIP mAbH

- Kd: 3200 nM
B2: 10g10 monoclonal antibody (original mouse mAb from hybridoma 10g10) (antibody, V domains shown)
VH: QVQLQESGAELVRSGASVKLSCTASGFNIRDYYLHWIKQRPEQGLEWIGWIDPENGDTEYAPKFQDKATVTADTSSNTAYLQLNSLTSEDTAVYYCNVYGIYFMDYWGQGTTVTVSS
VL: DIQLTQSPSTMAASPGEKITITCSASSSISSNSLHWYQQKPGFSPKLLIYRTSNLASGVPGRFSGSGSGTSYSLTIGTMETEDVATYYCQQGSSFPRMLTFGTGTKLEIKR
notes: Mouse antibody from a hybridoma; also called 10g10 mAb; 10g10 GIP mAb
